Positions count from the first letter of the chain named. Like-named read-outs stand apart in the source and are kept apart here.
B1: native VEGF (8-109) (ligand, human, UniProt P15692 214-315, looked up)
chain: GQNHHEVVKFMDVYQRSYCHPIETLVDIFQEYPDEIEYIFKPSCVPLMRCGGCCNDEGLECVPTEESNITMQIMRIKPHQGQHIGEMSFLQHNKCECRPKKD
notes: Homodimer
B2: LK-VRB-2f (ligand, human, UniProt P15692-4 27-191, looked up)
chain: APMAEGGGQNHHEVVKFMDVYQRSYCHPIETLVDIFQEYPDEIEYIFKPSCVPLMRCGGCCNSEMRECVPTEESNITMQIMRIKPHQGQHIGEMSFLQHNKCECRPKKDRARQENPCGPCSERRKHLFVQDPQTCKCSCKNTDSRCKARQLELNERTCRCDKPRR
B3: LK-VRB-8s* (ligand)
chain: APMAEGGGQNHHEVVKFMDVLQRSYCHPIETLVDIFQEYPDEIEYIFKPSCVPLMRCGGCCNSEMRECVPTEESNITMQIMRIKPHQGQHIGEMSFLQHNKCECRPKKD
B4: LK-VRB-2s* (ligand, human, UniProt P15692-4 27-135, looked up)
chain: B3 chain with L21Y
B5: LK-VRB-9s (ligand, human, UniProt P15692-4 27-135, looked up)
chain: B3 chain with L21Y, Q22R
B6: LK-VRB-7s* (ligand, human, UniProt P15692-4 27-135, looked up)
chain: B3 chain with M18E, L21Y
B7: LK-VRB-26s (ligand, human, UniProt P15692-4 27-135, looked up)
chain: B3 chain with M18E, Q22R, Y25S, S63D
B8: LK-VRB-25s (ligand, human, UniProt P15692-4 27-135, looked up)
chain: B3 chain with M18E, Q22R, Y25S, M65G
B9: LK-VRB-3s (ligand, human, UniProt P15692-4 27-135, looked up)
chain: B3 chain with F17I, M18E, L21F, Q22K, Y25S, S63D, M65G, R66L
B10: LK-VRB-24s (ligand, human, UniProt P15692-4 27-135, looked up)
chain: B3 chain with M18E, Q22R, Y25S, R66L

Legend:
Flt-1 receptor [1] = assay: RIA assay, binding to FLT-1 receptor
Procedure: Various assays were conducted to examine the properties and biological activities of the I43A/I46A/Q79A/I83A Flt-sel variant. For example, quantitative binding measurements were carried out using a soluble radio-immuno receptor-binding assay (RIA), as described in Example 6 above.
Target sequence in this assay (P17948 27-331 limits assumed): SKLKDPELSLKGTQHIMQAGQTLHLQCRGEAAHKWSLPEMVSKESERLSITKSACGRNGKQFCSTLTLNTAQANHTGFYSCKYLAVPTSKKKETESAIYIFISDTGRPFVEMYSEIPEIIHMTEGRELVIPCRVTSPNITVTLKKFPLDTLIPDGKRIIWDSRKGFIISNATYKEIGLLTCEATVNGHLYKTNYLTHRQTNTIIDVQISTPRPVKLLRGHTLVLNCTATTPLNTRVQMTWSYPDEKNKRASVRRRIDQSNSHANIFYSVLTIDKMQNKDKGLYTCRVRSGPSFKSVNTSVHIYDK

PLC-gamma in HUVEC cells = assay: PLC-gamma tyrosine phosphorylation after immunoprecipitation; type: cell-based, human; details: 20 ng/ml, 5 minutes, FIG. 13A
Procedure: In order to determine which VEGF receptor(s) are involved in PLC-gamma activation in primary endothelial cells, HUVEC cells were treated with native VEGF or VEGF receptor-selective variants and PLC-gamma phosphorylation was assessed after immunoprecipitation.
Passage 4–7 HUVEC cells (Cell Systems, Kirkland, Wash.) were grown in Cell System's complete medium (AZ0-500) with 10% fetal calf serum and growth factors on gelatin-coated dishes and made quiescent by 14 hour starvation in 0.2% serum. […] The cells were then lysed in 0.5–1 ml RIPA buffer containing 0.1 mM sodium orthovanadate, 5 mM para-nitrophenylphosphate, 10 mM sodium fluoride, 0.5 micromolar okadaic acid and a protease inhibitor cocktail (Roche MB 1836145). PLC-gamma was then immunoprecipitated from whole cell lysates using monoclonal antibodies (Upstate Biotechnology) and analyzed for tyrosine phosphorylation (FIG. 13A) or lysates were immunoprecipitated with monoclonal antibodies against p85 PI 3′-kinase (purchased from Transduction Labs (P13020) and Neomarkers (MS424-P)) and tested for phosphotyrosine using phosphotyrosine antibodies PY20 or E120H (Transduction Labs) (FIG. 13B). Immunoprecipitation was conducted as follows. Protein A/G beads (Pierce) were blocked for nonspecific protein binding in 50 mM HEPES pH 7.2, 0.1% TX-100, 150 mM NaCl and 1 mg/ml ovalbumin for 30 minutes. Antibodies were precoupled in the same buffer for 1 hour at 4° C. with head over end rotation and beads were washed 3 times in lysis buffer. Beads were added to the lysates and rotated overnight. Beads were washed sequentially in 50 mM Tris pH 7.6, 150 mM NaCl, 1% TX-100, 1 mM CaCl2; 50 mM Tris pH 7.6, 500 mM NaCl, 0.1% TX-100, 1 mM CaCl2 and 50 mM Tris pH 7.6, 150 mM NaCl, 0.05% TX-100, 1 mM CaCl2. Beads were then resuspended in 2× sample buffer and boiled. Supernatants were applied directly to 4–12% Tris-Glycine gradient gels (Novex).

Flt-IgG = target: T1, Flt-IgG (UniProt P17948 27-758, limits assumed); assay: competition ELISA vs biotinylated native VEGF for Flt-IgG
T1 construct: also called chimeric Flt-human Fc molecule; not shown: human IgG Fc
T1 sequence (P17948 27-758 limits assumed): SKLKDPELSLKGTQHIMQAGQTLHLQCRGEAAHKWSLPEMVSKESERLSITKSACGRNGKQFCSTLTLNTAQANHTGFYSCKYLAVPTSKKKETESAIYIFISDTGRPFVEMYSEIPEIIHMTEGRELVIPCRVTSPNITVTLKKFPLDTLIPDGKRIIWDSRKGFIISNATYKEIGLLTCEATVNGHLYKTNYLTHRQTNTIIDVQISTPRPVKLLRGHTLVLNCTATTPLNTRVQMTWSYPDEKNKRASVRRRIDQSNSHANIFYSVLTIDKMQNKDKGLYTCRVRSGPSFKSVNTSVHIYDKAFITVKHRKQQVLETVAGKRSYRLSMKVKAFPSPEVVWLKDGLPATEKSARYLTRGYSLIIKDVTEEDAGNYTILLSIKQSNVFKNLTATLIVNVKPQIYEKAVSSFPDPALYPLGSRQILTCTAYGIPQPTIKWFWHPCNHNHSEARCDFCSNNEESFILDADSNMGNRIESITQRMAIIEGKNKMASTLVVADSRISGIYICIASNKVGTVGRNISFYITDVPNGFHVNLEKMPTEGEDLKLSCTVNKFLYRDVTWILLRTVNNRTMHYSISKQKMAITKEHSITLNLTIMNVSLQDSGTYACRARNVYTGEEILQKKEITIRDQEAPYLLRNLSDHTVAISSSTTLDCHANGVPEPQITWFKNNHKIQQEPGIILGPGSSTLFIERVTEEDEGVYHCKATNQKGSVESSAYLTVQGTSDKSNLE
Procedure: (§1) Receptor binding assays were performed in 96-well immunoplates (Maxisorp, Nunc-Immunoplate, Nalge Nunc International, Rochester, N.Y.). Each well was coated with 100 μl of a solution containing 2 μg/ml of rabbit F(ab')2 to human IgG Fc (Jackson ImmunoResearch, West Grove, Pa.) in 50 mM carbonate buffer at pH 9.6 and incubated at 4° C. overnight. The supernatant was then discarded, the wells were washed three times in washing buffer (0.05% Tween 20 in PBS), and the plate was blocked (150 μl per well) with block buffer (0.5% BSA, 0.01% thimerosal in PBS) at room temperature for one hour. The supernatant was discarded, and the wells were washed.
(§2) The wells were filled with 100 μl of a solution containing Flt-IgG (a chimeric Flt-human Fc molecule) at 50 ng/ml in assay buffer (0.5% BSA, 0.05% Tween 20 in PBS). The wells were incubated at room temperature for 1 hour and then washed three times in wash buffer (0.05% Tween 20 in PBS).
(§3) Aliquots of the mixture (100 μl) were added to the precoated microtiter wells and the plate was incubated for 2 hours at room temperature. […] The wells were then incubated with 3, 3', 5,5'-tetramethyl benzidine (0.2 g/liter, Kirkegaard & Perry Laboratories, Gaithersburg, Md.) for about 10 minutes at room temperature. Absorbance was read at 450 nm on a Vmax plate reader (Molecular Devices, Menlo Park, Calif.).

[2] = target: KDR receptor on HUVEC cells (human, UniProt P35968 20-1356); assay: cell-based or functional assay
Chain of KDR receptor on HUVEC cells (P35968 20-1356): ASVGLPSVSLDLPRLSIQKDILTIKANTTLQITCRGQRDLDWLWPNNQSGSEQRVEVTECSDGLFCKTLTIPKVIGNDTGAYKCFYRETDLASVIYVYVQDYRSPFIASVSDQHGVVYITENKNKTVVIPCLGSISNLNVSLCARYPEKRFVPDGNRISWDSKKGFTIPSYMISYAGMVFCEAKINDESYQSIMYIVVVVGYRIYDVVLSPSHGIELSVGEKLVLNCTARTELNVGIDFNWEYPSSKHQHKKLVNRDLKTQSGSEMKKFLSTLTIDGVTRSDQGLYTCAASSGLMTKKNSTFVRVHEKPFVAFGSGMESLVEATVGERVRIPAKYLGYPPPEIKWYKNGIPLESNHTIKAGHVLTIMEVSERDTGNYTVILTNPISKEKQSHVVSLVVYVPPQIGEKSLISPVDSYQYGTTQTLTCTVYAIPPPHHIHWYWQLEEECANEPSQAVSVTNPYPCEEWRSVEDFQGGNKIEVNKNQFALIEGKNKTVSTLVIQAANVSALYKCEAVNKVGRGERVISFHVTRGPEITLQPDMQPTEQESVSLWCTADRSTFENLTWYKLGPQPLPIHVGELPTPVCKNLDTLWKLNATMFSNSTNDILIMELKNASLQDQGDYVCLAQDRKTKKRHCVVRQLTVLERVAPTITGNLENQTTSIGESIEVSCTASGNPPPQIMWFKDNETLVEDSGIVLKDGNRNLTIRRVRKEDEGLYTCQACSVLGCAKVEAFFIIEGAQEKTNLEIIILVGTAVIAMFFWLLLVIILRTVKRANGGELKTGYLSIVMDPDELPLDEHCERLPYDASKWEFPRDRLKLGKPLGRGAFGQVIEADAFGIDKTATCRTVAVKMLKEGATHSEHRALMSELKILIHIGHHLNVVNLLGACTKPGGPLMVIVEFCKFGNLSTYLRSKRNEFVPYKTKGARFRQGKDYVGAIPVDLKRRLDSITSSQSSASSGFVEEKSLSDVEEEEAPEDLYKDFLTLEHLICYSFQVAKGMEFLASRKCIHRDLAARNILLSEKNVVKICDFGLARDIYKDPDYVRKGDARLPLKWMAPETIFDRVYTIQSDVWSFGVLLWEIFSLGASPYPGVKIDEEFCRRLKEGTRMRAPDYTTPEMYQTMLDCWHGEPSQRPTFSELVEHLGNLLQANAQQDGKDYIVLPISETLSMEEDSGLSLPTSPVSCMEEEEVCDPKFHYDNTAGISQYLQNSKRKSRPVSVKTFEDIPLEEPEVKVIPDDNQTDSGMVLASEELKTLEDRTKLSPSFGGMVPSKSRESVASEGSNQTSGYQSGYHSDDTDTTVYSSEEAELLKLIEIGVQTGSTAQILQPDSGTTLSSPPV

[3] = target: gD-KDR receptor on CHO cells (UniProt P35968 20-1356); assay: cell-based or functional assay
KDR receptor = KDR receptor (Homo sapiens, UniProt P35968); assay: KDR receptor binding ELISA (inhibition of biotinylated native VEGF (8–109) binding); details: second figure of the cell, variant midpoint concentration divided by that of native VEGF
Chain of KDR receptor (P35968 20-327 limits assumed): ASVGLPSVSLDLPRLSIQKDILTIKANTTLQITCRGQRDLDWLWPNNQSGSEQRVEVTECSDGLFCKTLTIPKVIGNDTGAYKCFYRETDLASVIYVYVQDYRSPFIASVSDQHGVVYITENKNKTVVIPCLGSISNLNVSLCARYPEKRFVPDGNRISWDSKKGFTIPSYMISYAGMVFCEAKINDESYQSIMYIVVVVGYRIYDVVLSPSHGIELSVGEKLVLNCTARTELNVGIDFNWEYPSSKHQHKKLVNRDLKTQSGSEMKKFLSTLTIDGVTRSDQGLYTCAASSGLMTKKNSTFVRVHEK
Procedure: as §1, with “containing 8” for “containing 2”, “of a monoclonal antibody” for “of rabbit F(ab')2”, “to KDR known as MAKD5 (Genentech, South San Francisco, Calif.)” for “to human IgG Fc (Jackson ImmunoResearch, West Grove, Pa.)”, “was” for “was then”
as §3, with “of this” for “of the”, “for 1 hour” for “for 2 hours”, “3, 3′, 5,5′-tetramethyl” for “3, 3', 5,5'-tetramethyl”, “(0.2 gram/liter;” for “(0.2 g/liter,”
(§4) Titration curves were fit with a four-parameter nonlinear regression curve-fitting program (KaleidaGraph, Synergy Software, Reading, Pa.).

Flt-1 receptor [4] = assay: Flt-1 receptor binding ELISA (inhibition of biotinylated native VEGF binding to Flt-IgG); details: for Relative Binding Affinity, FLT-1 Receptor: concentration at midpoint absorbance: first figure of the cell, Flt-IgG; for Relative Binding Affinity, FLT-1 Receptor: ratio to native VEGF (8–109): second figure of the cell, fold less binding than native VEGF
Procedure: as §1, with “F(ab′)2” for “F(ab')2”
as §2
as §3, with “3′, 5,5′-tetramethyl” for “3', 5,5'-tetramethyl”
as §4
Target sequence in this assay (P17948 27-327 limits assumed): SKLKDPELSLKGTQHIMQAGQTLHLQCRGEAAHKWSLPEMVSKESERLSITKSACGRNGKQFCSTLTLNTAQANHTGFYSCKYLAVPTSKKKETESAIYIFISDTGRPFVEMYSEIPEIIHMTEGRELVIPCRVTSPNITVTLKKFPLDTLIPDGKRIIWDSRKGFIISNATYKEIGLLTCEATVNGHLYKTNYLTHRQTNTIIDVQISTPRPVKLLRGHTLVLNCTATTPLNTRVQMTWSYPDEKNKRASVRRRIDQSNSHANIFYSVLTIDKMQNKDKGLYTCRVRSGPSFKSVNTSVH

KDR (1-3) = target: T2, KDR (1-3) (UniProt P35968 20-327, limits assumed); assay: competition ELISA vs biotinylated native VEGF (8-109) for KDR (1-3)
T2 construct: domain: domains 1 to 3; Genentech reagent; also called KDR (1-3) monomer; domains 1 to 3 of KDR
T2 sequence (P35968 20-327 limits assumed): as the sequence (P35968 20-327 limits assumed) above
Procedure: as §1, with “containing 8” for “containing 2”, “of a monoclonal antibody” for “of rabbit F(ab')2”, “to KDR known as MAKD5 (Genentech, South San Francisco, Calif.)” for “to human IgG Fc (Jackson ImmunoResearch, West Grove, Pa.)”, “was” for “was then”
as §3, with “of this” for “of the”, “for 1 hour” for “for 2 hours”, “(0.2 gram/liter;” for “(0.2 g/liter,”
as §4

Molecule | Endothelial Cell Proliferation Activity (HUVEC, 3H-thymidine) [2] | relative binding affinity (ratio to native VEGF (8-109)) (Flt-IgG) [ratio] | Relative Binding Affinity, KDR Receptor: ratio to native VEGF (8–109) (KDR receptor) | Relative Binding Affinity, FLT-1 Receptor: ratio to native VEGF (8–109) (Flt-1 receptor [4]) | relative binding affinity (ratio to native VEGF (8-109)) (KDR (1-3)) [ratio] | further results
Native VEGF (8–109): truncated native VEGF comprising amino acids 8 to 109 of the 165-amino acid vascular endothelial cell growth factor [reference compound] | – | – | – | – | – | Kd (Flt-1 receptor [1]; Example 8, FIG. 8B, read-out: affinity for Flt-1 (RIA)): 0.4 nM
Native VEGF 165: 165-amino acid native vascular endothelial cell growth factor [reference compound] | – | – | – | – | – | PLC-gamma phosphorylation (PLC-gamma in HUVEC cells): able to stimulate PLC-gamma phosphorylation to a similar extent; Kd (Flt-1 receptor [1]; Table 6, read-out: Binding affinity, FLT-1 Receptor (RIA), value in parentheses): 0.037 nM
B1 | 0.5 nM | – | – | – | – | IC50 (Flt-IgG): 0.42 nM; Phosphorylation-Inducing Activity (KIRA assay) [3]: 2 nM
B2 | 0.1 ratio to native VEGF (8-109) | – | – | – | – | –
B3 | 0.5 nM | > 21000 | 0.5 nM/0.5 | />21000 | 0.5 | Endothelial Cell Proliferation Activity (HUVEC, 3H-thymidine) (ratio to native VEGF (8-109)) [2]: 1; Relative Binding Affinity, FLT-1 Receptor: concentration at midpoint absorbance (Flt-1 receptor [4]): beyond the sensitivity of the ELISA assay
B4 | 0.1 ratio to native VEGF (8-109) | – | – | – | – | –
B5 | – | 300 | 0.5 nM/0.5 | /300 | 0.5 | –
B6 | 1 ratio to native VEGF (8-109) | > 15000 | 1 nM/1 | />15000 | 1 | Relative Binding Affinity, FLT-1 Receptor: concentration at midpoint absorbance (Flt-1 receptor [4]): beyond the sensitivity of the ELISA assay
B7 | – | – | 23 nM/23 | />25000 | 23 | –
B8 | – | – | 4 nM/4 | />12000 | 4 | –
B9 | – | 400 | – | – | 1 | Phosphorylation-Inducing Activity (KIRA assay) [3]: 1 ratio to native VEGF (8-109)
B10 | – | – | 10 nM/10 | />18000 | 10 | –

Source: US7090834B1, “Vascular endothelial cell growth factor variants and uses thereof” (Genentech, Inc., priority 1999, dated 2006)
